The text below walks through data of patent publication US20250213686A1 (published 2025).

In experiment [1] the target is T1, IGRP (islet-specific glucose-6-phosphatase-related protein) peptide on HLA-DRA*01:01 / HLA-DRB1*04:01 (human). Description: proliferation.
In experiment [2] the target is T2, Preproinsulin (PPI) peptide on HLA-DRA*01:01 / HLA-DRB1*04:01 (human).
T2 peptide: SLQPLALEGSLQKRG
Description: proliferation.

Experiment [3] concerns the target T1, IGRP (islet-specific …). Description: upper end of the range; % CD137-expressing cells; LV-transduced CD4+ T cells 3:1 with peptide-pulsed HLA-DR4 K562 cells, 20 h; full-length, on cells.
Experiment [4] deals with T3, hypothetical protein V495_01361 [Pseudogymnoascus sp. VKM F-4514 (FW-929)] (IGRP305_324_path15) peptide on … (human).
T3 peptide: SAMFLDIPTHPEEHS
Description: activation reporter or marker.

The target in experiment [5] is T4, UDP-N-acetylglucosamine--N-acetylmuramyl-(pentapeptide) pyrophosphoryl-undecaprenol N-acetylglucosamine … (human).
T4 peptide: AASFLHIPYFTHECD
Description: activation reporter or marker.

Experiment [6] addresses T5, hypothetical protein T551_03071 [Pneumocystis jirovecii RU7] (IGRP305_324_path17) peptide on HLA-DRA*01:01 / … (human).
T5 peptide: FTDFLNIPSYEELND
Description: activation reporter or marker.

In experiment [7] the target is T6, exodeoxyribonuclease V subunit beta [Chlamydia caviae] (IGRP305_324_path12) peptide on HLA-DRA*01:01 / … (human).
T6 peptide: CSPFLQIPSYEPIEY
Description: activation reporter or marker.

Experiment [8] has as its target T7, WD domain, G-beta repeat-containing protein [Toxoplasma gondii ARI] (IGRP305_324_path20) peptide on … (human).
T7 peptide: ESLFLQLSTHTEASA
Description: activation reporter or marker.

Experiment [9] addresses T8, hypothetical protein GX51_07420 [Blastomyces parvus] (IGRP305_324_path16) peptide on HLA-DRA*01:01 / … (human).
T8 peptide: KYEFLPIPTYEEATS
Description: activation reporter or marker.

Experiment [10] concerns the target T9, DUF4435 domain-containing protein [Bacillus toyonensis] (IGRP305_324_path5) peptide on HLA-DRA*01:01 / … (human).
T9 peptide: YDEVLQIPTHQENTQ
Description: activation reporter or marker.

For experiment [11], the target named is T10, hypothetical protein ECU05_1220 [Encephalitozoon cuniculi GB-M1] (IGRP305_324_path19) peptide on … (human).
T10 peptide: QQKFLKNIDTHEEAE
Description: activation reporter or marker.

Experiment [12] deals with T11, TPA: UDP-N-acetylglucosamine--N-acetylmuramyl-(pentapeptide) pyrophosphoryl-undecaprenol N-acetylglucosamine … (human).
T11 peptide: AARFLHIPYYTHECD
Description: activation reporter or marker.

Experiment [13] addresses T12, hypothetical protein KMI_05g09430 [Encephalitozoon hellem] (IGRP305_324_path18) peptide on HLA-DRA*01:01 / … (human).
T12 peptide: LSEFLKIPNHEITLL
Description: activation reporter or marker.

Experiment [14] concerns the target T13, undecaprenyldiphospho-muramoylpentapeptide beta-N-acetylglucosaminyltransferase [Treponema sp.] … (human).
T13 peptide: AAKFLHIPVFTHECD
Description: activation reporter or marker.

Experiment [15] has as its target T1, IGRP (islet-specific …). Description: lower end of the range; % CD137-expressing cells; LV-transduced CD4+ T cells 3:1 with peptide-pulsed HLA-DR4 K562 cells, 20 h; full-length, on cells.
Experiment [16] concerns the target T1, IGRP (islet-specific …). Description: upper end of the range; CD154 surface expression intensity; LV-transduced CD4+ T cells 3:1 with peptide-pulsed HLA-DR4 K562 cells, 20 h; full-length, on cells.
Experiment [17] addresses T1, IGRP (islet-specific …). Description: lower end of the range; CD154 surface expression intensity; LV-transduced CD4+ T cells 3:1 with peptide-pulsed HLA-DR4 K562 cells, 20 h; full-length, on cells.

Where only a bound is given, the exact number is not on record here.

B1: T1D4 TCR (TCR, V domains shown)
Valpha: KDQVFQPSTVASSEGAVVEIFCNHSVSNAYNFFWYLHFPGCAPRLLVKGSKPSQQGRYNMTYERFSSSLLILQVREADAAVYYCAVEDLNQAGTALIFGKGTTLSVSS
Vbeta: KAGVTQTPRYLIKTRGQQVTLSCSPISGHRSVSWYQQTPGQGLQFLFEYFSETQRNKGNFPGRFSGRQFSNSRSEMNVSTLELGDSALYLCASSLALGQGNQQFFGPGTRLTVL
Regarding B1, the binding result (with IGRP (islet-specific …) [1]; in experiment [2]) was “no recognition” in each case.

B2: T1D2 TCR (TCR, V domains shown)
Valpha: DQQVKQNSPSLSVQEGRISILNCDYTNSMFDYFLWYKKYPAEGPTFLISISSIKDKNEDGRFTVFLNKSAKHLSLHIVPSQPGDSAVYFCAATRTSGTYKYIFGTGTRLKVLA
Vbeta: NAGVTQTPKFRILKIGQSMTLQCTQDMNHNYMYWYRQDPGMGLKLIYYSVGAGITDKGEVPNGYNVSRSTTEDFPLRLELAAPSQTSVYFCASSPWGAGGTDTQYFGPGTRLTVL
As to B2, the EC50 of peptide with IGRP (islet-specific …) [3] was ≤ 0.1 µg/mL; with IGRP (islet-specific …) [15] it was ≥ 0.03 µg/mL; in the experiment with IGRP (islet-specific …) [16] it was ≤ 0.3 µg/mL; with IGRP (islet-specific …) [17], ≥ 0.1 µg/mL. In addition, the binding result in [4], in experiment [5], in experiment [6], in experiment [7], in experiment [8] and in experiment [9] was “no recognition” throughout. Moreover, the binding result in [10], in experiment [11], in experiment [12], in experiment [13] and in experiment [14] was “no recognition” in each case.
